Source: article PMC3176292, “Mutations in Protein-Binding Hot-Spots on the Hub Protein Smad3 Differentially Affect Its Protein Interactions and Smad3-Regulated Gene Expression” (PLoS ONE, 2011)
Positions count from the first letter of the chain named. In names and notes the source's numbering stands.

T1: Flag-Smad4, full length (UniProt Q13485 1-552)
T1 construct: Smad4; plasmid pCMV5-Flag-Smad4 (from J. Massagué); also called Smad4 FL; source: HEK-293, transfected, in lysate
T1 sequence (looked up): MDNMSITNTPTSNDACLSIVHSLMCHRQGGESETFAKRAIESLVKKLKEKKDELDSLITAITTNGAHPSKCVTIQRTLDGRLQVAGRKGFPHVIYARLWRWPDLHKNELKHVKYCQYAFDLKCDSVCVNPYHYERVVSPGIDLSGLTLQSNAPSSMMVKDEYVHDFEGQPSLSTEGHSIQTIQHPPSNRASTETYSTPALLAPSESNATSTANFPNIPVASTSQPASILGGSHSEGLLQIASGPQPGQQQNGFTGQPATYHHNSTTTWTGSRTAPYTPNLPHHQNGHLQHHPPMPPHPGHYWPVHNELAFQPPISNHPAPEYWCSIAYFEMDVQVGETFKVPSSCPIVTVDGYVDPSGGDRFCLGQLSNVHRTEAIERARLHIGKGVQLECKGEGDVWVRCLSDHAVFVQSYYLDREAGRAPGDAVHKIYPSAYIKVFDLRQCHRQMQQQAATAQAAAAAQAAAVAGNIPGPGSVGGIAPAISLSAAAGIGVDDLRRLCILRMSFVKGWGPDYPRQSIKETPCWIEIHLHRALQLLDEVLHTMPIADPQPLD

T2: Flag-SkiW274E, full length (UniProt P12755 1-728, W274E)
T2 construct: plasmid pCMV5b-Flag-SkiW274E (from K. Luo); also called SkiW274E FL; SKI274E; source: HEK-293, transfected, in lysate
T2 sequence (looked up): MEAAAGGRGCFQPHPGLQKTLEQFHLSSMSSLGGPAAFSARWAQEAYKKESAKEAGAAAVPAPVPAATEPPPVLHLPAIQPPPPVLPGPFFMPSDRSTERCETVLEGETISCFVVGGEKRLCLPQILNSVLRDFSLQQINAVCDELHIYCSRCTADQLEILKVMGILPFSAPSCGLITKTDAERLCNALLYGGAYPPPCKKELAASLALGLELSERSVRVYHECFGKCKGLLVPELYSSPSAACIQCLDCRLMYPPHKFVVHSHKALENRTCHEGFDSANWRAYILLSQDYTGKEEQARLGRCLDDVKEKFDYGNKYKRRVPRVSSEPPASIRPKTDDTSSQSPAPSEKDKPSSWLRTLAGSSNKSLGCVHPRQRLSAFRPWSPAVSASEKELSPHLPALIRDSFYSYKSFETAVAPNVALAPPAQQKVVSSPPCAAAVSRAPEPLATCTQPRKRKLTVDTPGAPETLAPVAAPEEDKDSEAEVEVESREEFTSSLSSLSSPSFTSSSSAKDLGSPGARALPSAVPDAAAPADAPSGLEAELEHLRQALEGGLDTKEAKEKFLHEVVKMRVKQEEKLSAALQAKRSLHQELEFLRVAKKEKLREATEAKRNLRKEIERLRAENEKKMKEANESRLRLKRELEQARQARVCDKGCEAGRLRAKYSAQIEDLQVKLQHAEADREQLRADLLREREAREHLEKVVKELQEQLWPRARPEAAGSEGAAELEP

T3: SIP1 Smad-binding domain (amino acids 315–487) on the 3xFlag-thioredoxin scaffold (UniProt Q9R0G7 315-487)
T3 construct: SIP1, amino acids 315–487; amplified from pACT2-SIP1-315-487 (from D. Huylebroeck), which I recall as a mouse clone; cloned into the RsrII site of pCI-3xFLAG-Trx; also called Sip1 315–487; TrxSIP1; source: HEK-293, transfected, in lysate
T3 sequence (looked up): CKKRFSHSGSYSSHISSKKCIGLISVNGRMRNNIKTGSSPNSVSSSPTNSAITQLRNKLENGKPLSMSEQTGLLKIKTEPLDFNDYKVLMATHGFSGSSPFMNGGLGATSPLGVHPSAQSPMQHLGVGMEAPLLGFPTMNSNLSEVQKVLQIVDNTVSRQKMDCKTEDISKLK

B1: Renilla luciferase-Smad3 C338A (natural protein, UniProt P84022 1-425, looked up)
chain: MSSILPFTPPIVKRLLGWKKGEQNGQEEKWCEKAVKSLVKKLKKTGQLDELEKAITTQNVNTKCITIPRSLDGRLQVSHRKGLPHVIYCRLWRWPDLHSHHELRAMELCEFAFNMKKDEVCVNPYHYQRVETPVLPPVLVPRHTEIPAEFPPLDDYSHSIPENTNFPAGIEPQSNIPETPPPGYLSEDGETSDHQMNHSMDAGSPNLSPNPMSPAHNNLDLQPVTYCEPAFWCSISYYELNQRVGETFHASQPSMTVDGFTDPSNSERFCLGLLSNVNRNAAVELTRRHIGRGVRLYYIGGEVFAECLSDSAIFVQSPNCNQRYGWHPATVCKIPPGANLKIFNNQEFAALLAQSVNQGFEAVYQLTRMCTIRMSFVKGWGAEYRRQTVTSTPCWIELHLNGPLQWLDKVLTQMGSPSIRCSSVS
notes: Smad3; source: HEK-293, transfected together with constitutively active Alk5, in lysate
B2: Renilla luciferase-Smad3 E267A (natural protein, UniProt P84022 1-425, looked up)
chain: B1 chain with E267A, A338C
notes: as for B1
B3: Renilla luciferase-Smad3 K341A (natural protein, UniProt P84022 1-425, looked up)
chain: B1 chain with A338C, K341A
notes: as for B1
B4: Renilla luciferase-Smad3 L340A (natural protein, UniProt P84022 1-425, looked up)
chain: B1 chain with A338C, L340A
notes: as for B1
B5: Renilla luciferase-Smad3 P335A/P336A (natural protein, UniProt P84022 1-425, looked up)
chain: B1 chain with P335A, P336A, A338C
notes: as for B1
B6: Renilla luciferase-Smad3 Q322A/Y324A (natural protein, UniProt P84022 1-425, looked up)
chain: B1 chain with Q322A, Y324A, A338C
notes: as for B1
B7: Renilla luciferase-Smad3 S254A (natural protein, UniProt P84022 1-425, looked up)
chain: B1 chain with S254A, A338C
notes: as for B1
B8: Renilla luciferase-Smad3 V224A (natural protein, UniProt P84022 1-425, looked up)
chain: B1 chain with V224A, A338C
notes: as for B1
B9: Renilla luciferase-Smad3 V356R (natural protein, UniProt P84022 1-425, looked up)
chain: B1 chain with A338C, V356R
notes: as for B1
B10: Renilla luciferase-Smad3 W326A (natural protein, UniProt P84022 1-425, looked up)
chain: B1 chain with W326A, A338C
notes: as for B1
B11: Renilla luciferase-Smad3 W406A (natural protein, UniProt P84022 1-425, looked up)
chain: B1 chain with A338C, W406A
notes: as for B1
B12: Renilla luciferase-Smad3 Y226A (natural protein, UniProt P84022 1-425, looked up)
chain: B1 chain with Y226A, A338C
notes: as for B1
B13: Renilla luciferase-Smad3 Y297A (natural protein, UniProt P84022 1-425, looked up)
chain: B1 chain with Y297A, A338C
notes: as for B1
B14: Renilla luciferase-Smad3 Y298A (natural protein, UniProt P84022 1-425, looked up)
chain: B1 chain with Y298A, A338C
notes: as for B1

Tests used:
Experiment in all cases: co-IP; LUMIER: Renilla luciferase-Smad3 and Flag-tagged partner co-expressed with constitutively active Alk5 in HEK-293; Flag protein captured from cleared lysate (TNE: 10 mM Tris-HCl pH 7.8, 150 mM NaCl, 1 mM EDTA, 1% Igepal CA-630) on anti-Flag 96-well plates, 2 h at 4 °C; co-precipitated Renilla luciferase activity, TrxGA background subtracted, percent of wild-type Smad3
Conditions in all cases: partners not purified
Flag-Smad3, full length = molecular target: T4, Flag-Smad3, full length (UniProt P84022 1-425)
T4 construct: Smad3; plasmid pCMV5-Flag-Smad3 (from J. Massagué); bait for Smad3-Smad3 association; also called Smad3 FL; source: HEK-293, transfected together with constitutively active Alk5, in lysate

Flag-Smad4, full length = molecular target: T1, Flag-Smad4, full length
[1] = molecular target: T2, Flag-SkiW274E, full length
[2] = molecular target: T3, SIP1 Smad-binding domain (amino acids …)

Row | Binder | percent binding relative to wild-type Smad3 (Flag-Smad3, full length) [%] | percent binding relative to wild-type Smad3 (Flag-Smad4, full length) [%] | percent binding relative to wild-type Smad3 [1] [%] | percent binding relative to wild-type Smad3 [2] [%]
1 | B1 | 100 | 125 | 111 | 44
2 | B2 | 222 | 458 | 137 | 88
3 | B3 | 95 | 275 | 55 | 66
4 | B4 | 99 | 181 | 57 | 159
5 | B5 | 109 | 309 | 118 | 123
6 | B6 | 143 | 124 | 100 | 162
7 | B7 | 105 | 101 | 78 | 128
8 | B8 | 118 | 122 | 212 | 339
9 | B9 | 275 | 233 | 30 | 7
10 | B10 | 159 | 194 | 88 | 319
11 | B11 | 564 | 109 | 21 | 15
12 | B12 | 161 | 110 | 89 | 7
13 | B13 | 82 |  | 29 | 80
14 | B14 | 113 | 120 | 121 | 33
